Laboratory results: paper PMC7641770, “Novel polyadenylylation-dependent neutralization mechanism of the HEPN/MNT toxin/antitoxin system” (Nucleic Acids Research, 2020)

Experiments:
[1] = target: T1, MntA antitoxin (SO_3165) of Shewanella oneidensis, untagged (Shewanella oneidensis, UniProt Q8ECH7 1-139); test: pull-down; conditions: partners not purified
T1 construct: also called MNT antitoxin; native MntA

[2] = target: the molecule itself; test: crystal structure
[3] = target: T1, MntA antitoxin (SO_3165) of Shewanella …; test: crystal structure; co-expressed complex purified (Superdex 200, 20 mM Tris pH 8.0, 150 mM NaCl), sitting drop vapor diffusion at 16°C; (HepT)6-(MntA)2 hetero-octamer; conditions: both partners purified
[4] = target: the molecule itself; test: as above
[5] = target: MntA D39E,D41E (SO_3165) of Shewanella oneidensis, untagged (Shewanella oneidensis, UniProt Q8ECH7 1-139, D39E | D41E); test: crystal structure; conditions: both partners purified

B1: HepT toxin (SO_3166) of Shewanella oneidensis, C-terminal His6 tag, polyadenylylated at Y104 by co-produced MntA (natural protein, UniProt Q8ECH6 1-133, looked up)
chain: MNDIIINKIATIKRCIKRIQQVYGDGSQFKQDFTLQDSVILNLQRCCEACIDIANHINRQQQLGIPQSSRDSFTLLAQNNLITQPLSDNLKKMVGLRNIAVHDYQELNLDIVVHVVQHHLEDFEQFIDVIKAE
notes: also called HEPN toxin; modified HepT
B1: binds [1]; binds [2].

B2: HepT Y104A (SO_3166) of Shewanella oneidensis, C-terminal His6 tag (natural protein, UniProt Q8ECH6 1-133, looked up)
chain: MNDIIINKIATIKRCIKRIQQVYGDGSQFKQDFTLQDSVILNLQRCCEACIDIANHINRQQQLGIPQSSRDSFTLLAQNNLITQPLSDNLKKMVGLRNIAVHDAQELNLDIVVHVVQHHLEDFEQFIDVIKAE
notes: also called unmodified HepT^Y104A
B2: binds [3]; binds [4].

B3: HepT toxin (SO_3166) of Shewanella oneidensis, C-terminal His6 tag, unmodified (co-produced with an inactive MntA variant) (natural protein, UniProt Q8ECH6 1-133, looked up)
chain: MNDIIINKIATIKRCIKRIQQVYGDGSQFKQDFTLQDSVILNLQRCCEACIDIANHINRQQQLGIPQSSRDSFTLLAQNNLITQPLSDNLKKMVGLRNIAVHDYQELNLDIVVHVVQHHLEDFEQFIDVIKAE
notes: also called unmodified HepT
B3: binds [5].
